Our source for the Kd values is patent US20130164308A1 (RINAT NEUROSCIENCE, published 2013).

Residue numbers refer to the chain shown, from its start. Names may count otherwise.

B1: DF1.1 variant HCDR3-R9A (antibody, V domains shown)
VH: QVQLVQSGAEVKKPGSSVKVSCKTSGGTFNNVAINWVRQAPGQGLEWMGGIIPGLDTPNYAQKFQGRVTITADKSTTSTYLELSSLRSDDTAVYYCAREMEVSGAWRPTEAFEIWGQGTMVTVSS
VL: ETTLTQSPGTLSLSPGERATLSCRASQTISNNFVAWYQQKPGQAPRLLIYGASTRATGIPDRFSGSGSGTDFTLTISSLEPEDFAVYYCQQYGSSPYTFGQGTKVDIK
B2: DF1.1 variant HCDR3-R11A (antibody, V domains shown)
VH: B1 VH with A105R, R107A
VL: B1 VL
B3: DF1.1 variant LCDR3-G4R (antibody, V domains shown)
VH: B1 VH with A105R
VL: B1 VL with G93R
B4: DF1.1 variant HCDR3-E5A (antibody, V domains shown)
VH: B1 VH with E101A, A105R
VL: B1 VL
B5: DF1.1 variant LCDR3-Q1A (antibody, V domains shown)
VH: B1 VH with A105R
VL: B1 VL with Q90A
B6: DF1.1 variant HCDR3-G8R (antibody, V domains shown)
VH: B1 VH with G104R, A105R
VL: B1 VL
B7: DF1.1 variant HCDR3-S7R (antibody, V domains shown)
VH: B1 VH with S103R, A105R
VL: B1 VL
B8: DF1.1 variant LCDR3-P7A (antibody, V domains shown)
VH: B1 VH with A105R
VL: B1 VL with P96A
B9: DF1.1 variant LCDR3-T9R (antibody, V domains shown)
VH: B1 VH with A105R
VL: B1 VL with T98R
B10: DF1.1 variant HCDR3-P12A/LCDR3-S6R (antibody, V domains shown)
VH: B1 VH with A105R, P108A
VL: B1 VL with S95R
B11: DF1.1 variant HCDR3-P12A/LCDR3-Y3A (antibody, V domains shown)
VH: B1 VH with A105R, P108A
VL: B1 VL with Y92A
B12: DF1.1 variant HCDR3-A15R/LCDR3-Y3A (antibody, V domains shown)
VH: B1 VH with A105R, A111R
VL: B1 VL with Y92A
B13: DF1.1 variant HCDR3-W10A/LCDR3-Y8A (antibody, V domains shown)
VH: B1 VH with A105R, W106A
VL: B1 VL with Y97A
B14: DF1.1 variant HCDR3-P12A/LCDR3-Y8A (antibody, V domains shown)
VH: B1 VH with A105R, P108A
VL: B1 VL with Y97A
B15: DF1.1 variant HCDR3-W10A/LCDR3-Y3A (antibody, V domains shown)
VH: B1 VH with A105R, W106A
VL: B1 VL with Y92A

One test addresses T1, S. aureus alpha-toxin (Staphylococcus aureus, UniProt P09616).
By Kd is commonly meant a measure of binding affinity in units of concentration. Read a high Kd as lower affinity. Turning to B1, binding was characterised by a dissociation constant (Kd) of 0.4 nM. As for B2, binding was characterised by a dissociation constant (Kd) of 0.8 nM. On to B3, for which the Kd was less than 0.14 nM. B4: the dissociation constant (Kd) was 0.4 nM. On the same count and under the same terms, to B5 belongs less than 0.14 nM; to B6, 0.4 nM; to B7, 0.3 nM. Consider B8, for which the Kd is less than 0.14 nM. Regarding B9, the Kd is less than 0.14 nM.

A further test concerns the target T1, S. aureus alpha-toxin. The source holds these as a separate data set.
B10 displayed a dissociation constant Kd of 330 nM. B11 had an equilibrium dissociation constant (Kd) of 190 nM. As for B12, binding was put at a Kd of 280 nM. This Kd and that of the molecule before are within 1.5-fold of each other. Take B13: the Kd turned out to be 440 nM. The molecule B14 gave a dissociation constant Kd of 37 nM. Same read-out and setting: under B15 stands 440 nM.
